Assay results: patent US20080102072A1
One block for each substance: values may come before it.

Legend:
[1] = target: IFNAR1-IgG multiple alanine mutant 1, residues 19-25 (RWNRSDE to AWNASAA) (human); experiment: capture ELISA, mutant IFNAR1-IgG captured by goat anti-hIgG-Fc, mAb 10 µg/ml; OD as % of wild type IFNAR1-IgG
[2] = target: IFNAR1-IgG multiple alanine mutant 2, residues 69-74 (EEIKLR to AAIALA) (human); experiment: as above
[3] = target: IFNAR1-IgG multiple alanine mutant 8, residues 291-298 (EEIKFDTE to AAIAFATA) (human); experiment: as above
[4] = target: IFNAR1-IgG multiple alanine mutant 10, residues 383-388 (DEKLNK to AAALNA) (human); experiment: as above
[5] = target: IFNAR1-IgG multiple alanine mutant 3, residues 76-80 (RAEKE to AAAAA) (human); experiment: as above
[6] = target: IFNAR1-IgG multiple alanine mutant 6, residues 157-162 (RHKIYK to AAAIYA) (human); experiment: as above
[7] = target: IFNAR1-IgG multiple alanine mutant 9, residues 352-359 (ERKIIEKK to AAAIIAAA) (human); experiment: as above
[8] = target: IFNAR1-IgG multiple alanine mutant 4, residues 103-111 (… to …) (human); experiment: as above
[9] = target: IFNAR1-IgG multiple alanine mutant 5, residues 148-152 (EERIE to AAAIA) (human); experiment: as above
[10] = target: IFNAR1-IgG multiple alanine mutant 7, residues 244-249 (HLYKWK to ALYAWA) (human); experiment: as above
[11] = target: human IFNAR1, membrane receptor on cells (U266 human myeloma cells; Hela and A549 cells in the functional assays) (human) (UniProt P17181); experiment: flow cytometry on U266 cells, F-mAb preincubated with competitor: 10 µg soluble wild type hIFNAR1-IgG
[12] = target: human IFNAR1, membrane receptor on cells (U266 human myeloma cells; Hela and A549 cells in the functional assays) (human) (UniProt P17181); experiment: flow cytometry on U266 cells, F-mAb preincubated with competitor: 10 µg soluble hIFNAR1-IgG Mutant #7 (244-249)
[13] = target: IFNAR1-IgG single alanine mutant K294A (human); experiment: capture ELISA, single alanine mutant IFNAR1-IgG captured by goat anti-hIgG-Fc; OD as % of wild type IFNAR1-IgG
[14] = target: IFNAR1-IgG single alanine mutant E69A (human); experiment: as above
[15] = target: IFNAR1-IgG single alanine mutant R74A (human); experiment: as above
[16] = target: IFNAR1-IgG single alanine mutant K72A (human); experiment: as above
[17] = target: IFNAR1-IgG single alanine mutant E292A (human); experiment: as above
[18] = target: IFNAR1-IgG single alanine mutant E70A (human); experiment: as above
[19] = target: IFNAR1-IgG single alanine mutant E291A (human); experiment: as above
[20] = target: IFNAR1-IgG single alanine mutant H244A (human); experiment: as above
[21] = target: IFNAR1-IgG single alanine mutant K249A (human); experiment: as above
[22] = target: IFNAR1-IgG single alanine mutant E298A (human); experiment: as above
[23] = target: IFNAR1-IgG single alanine mutant K247A (human); experiment: as above
[24] = target: IFNAR1-IgG single alanine mutant D296A (human); experiment: as above
[25] = target: hIFNAR1 ECD-IgG fusion protein (immunoadhesin, pRK5 hIFNAR1-IgG clone 53.65), wild type (human); experiment: competitive radioimmunoprecipitation with 125I-hIFNAR1-IgG and unlabeled hIFNAR1-IgG, Scatchard analysis
[26] = target: human IFNAR1, membrane receptor on cells (U266 human myeloma cells; Hela and A549 cells in the functional assays) (human) (UniProt P17181); experiment: cell-based or functional assay
[27] = target: human IFNAR1, membrane receptor on cells (U266 human myeloma cells; Hela and A549 cells in the functional assays) (human) (UniProt P17181); experiment: flow cytometry on U266 cells, F-mAb preincubated with competitor: 10 µg soluble hIFNAR1-IgG Mutant #8 (291-298)
[28] = target: human IFNAR1, membrane receptor on cells (U266 human myeloma cells; Hela and A549 cells in the functional assays) (human) (UniProt P17181); experiment: flow cytometry on U266 cells, fluoresceinated mAb 1 µg/100 µl, no soluble hIFNAR1
[29] = target: human IFNAR1, membrane receptor on cells (U266 human myeloma cells; Hela and A549 cells in the functional assays) (human) (UniProt P17181); experiment: flow cytometry on U266 cells, fluoresceinated control IgG, no soluble hIFNAR1

Chain of UniProt P17181 (P17181 28-557): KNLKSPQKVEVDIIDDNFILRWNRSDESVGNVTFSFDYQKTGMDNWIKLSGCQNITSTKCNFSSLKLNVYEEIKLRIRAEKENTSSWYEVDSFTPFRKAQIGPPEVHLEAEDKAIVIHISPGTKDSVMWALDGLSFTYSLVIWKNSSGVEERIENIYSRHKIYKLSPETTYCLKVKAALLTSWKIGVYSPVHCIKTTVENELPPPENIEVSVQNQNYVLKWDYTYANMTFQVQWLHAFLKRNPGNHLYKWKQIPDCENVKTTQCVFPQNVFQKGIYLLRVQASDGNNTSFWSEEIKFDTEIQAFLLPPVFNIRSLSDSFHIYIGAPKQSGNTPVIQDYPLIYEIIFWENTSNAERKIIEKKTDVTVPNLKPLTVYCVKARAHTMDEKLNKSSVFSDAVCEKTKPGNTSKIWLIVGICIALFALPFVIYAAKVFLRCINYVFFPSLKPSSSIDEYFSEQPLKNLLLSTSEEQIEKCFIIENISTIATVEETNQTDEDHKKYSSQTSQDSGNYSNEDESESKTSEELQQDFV
Chain of IFNAR1-IgG single alanine mutant K247A (human) (chain, as listed by the source K247A K247A limits assumed): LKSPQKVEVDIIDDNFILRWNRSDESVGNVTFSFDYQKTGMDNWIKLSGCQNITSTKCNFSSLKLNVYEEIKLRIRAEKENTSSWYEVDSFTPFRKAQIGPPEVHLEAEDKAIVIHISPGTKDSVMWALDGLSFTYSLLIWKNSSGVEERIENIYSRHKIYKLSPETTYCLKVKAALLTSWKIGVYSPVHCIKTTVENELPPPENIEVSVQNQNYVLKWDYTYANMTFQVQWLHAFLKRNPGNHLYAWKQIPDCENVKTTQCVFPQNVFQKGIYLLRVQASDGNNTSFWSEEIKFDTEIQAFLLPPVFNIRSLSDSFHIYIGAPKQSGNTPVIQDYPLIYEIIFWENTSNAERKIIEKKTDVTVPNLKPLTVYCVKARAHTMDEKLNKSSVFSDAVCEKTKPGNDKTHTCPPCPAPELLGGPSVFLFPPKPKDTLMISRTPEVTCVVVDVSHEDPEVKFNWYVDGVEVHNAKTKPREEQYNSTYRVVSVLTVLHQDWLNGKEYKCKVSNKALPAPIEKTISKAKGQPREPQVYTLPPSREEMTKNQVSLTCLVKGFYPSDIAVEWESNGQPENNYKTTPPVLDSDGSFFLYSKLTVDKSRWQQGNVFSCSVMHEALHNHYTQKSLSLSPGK
Chain of IFNAR1-IgG multiple alanine mutant 7, residues 244-249 (HLYKWK to ALYAWA) (human) (chain, as listed by the source mutant limits assumed): as the sequence (chain, as listed by the source K247A K247A limits assumed) above, with H244A, K249A counted along it
Chain of IFNAR1-IgG single alanine mutant D296A (human) (chain, as listed by the source D296A D296A limits assumed): as the sequence (chain, as listed by the source K247A K247A limits assumed) above, with A247K, D296A counted along it
Chain of IFNAR1-IgG single alanine mutant K249A (human) (chain, as listed by the source K249A K249A limits assumed): as the sequence (chain, as listed by the source K247A K247A limits assumed) above, with A247K, K249A counted along it
Chain of IFNAR1-IgG single alanine mutant E70A (human) (chain, as listed by the source E70A E70A limits assumed): as the sequence (chain, as listed by the source K247A K247A limits assumed) above, with E70A, A247K counted along it
Chain of IFNAR1-IgG multiple alanine mutant 10, residues 383-388 (DEKLNK to AAALNA) (human) (chain, as listed by the source mutant limits assumed): as the sequence (chain, as listed by the source K247A K247A limits assumed) above, with A247K, D383A, E384A, K385A, K388A counted along it
Chain of IFNAR1-IgG multiple alanine mutant 3, residues 76-80 (RAEKE to AAAAA) (human) (chain, as listed by the source mutant limits assumed): as the sequence (chain, as listed by the source K247A K247A limits assumed) above, with R76A, E78A, K79A, E80A, A247K counted along it

- % Wild type binding of mAbs [1]: 95%
- % Wild type binding of mAbs [2]: 0%
- % Wild type binding of mAbs [3]: 96%
- % Wild type binding of mAbs [4]: 103%
- % Wild type binding of mAbs [5]: 92%
- % Wild type binding of mAbs [6]: 100%
- % Wild type binding of mAbs [7]: 101%
- % Wild type binding of mAbs [8]: 80%
- % Wild type binding of mAbs [9]: 90%
- % Wild type binding of mAbs [10]: 106%
- Mean Fluorescence Intensity [11]: 2.45
- Mean Fluorescence Intensity [12]: 2.95
- % Wild type binding of mAbs [13]: 69%
- % Wild type binding of mAbs [14]: 69%
- % Wild type binding of mAbs [15]: 30%
- % Wild type binding of mAbs [16]: 91%
- % Wild type binding of mAbs [17]: 58%
- % Wild type binding of mAbs [18]: 85%
- % Wild type binding of mAbs [19]: 58%
- % Wild type binding of mAbs [20]: 96%
- % Wild type binding of mAbs [21]: 73%
- % Wild type binding of mAbs [22]: 60%
- % Wild type binding of mAbs [23]: 86%
- % Wild type binding of mAbs [24]: 53%
- Kd [25]: 0.052 nM
- EC50 of mAb neutralizing the anti-viral cytopathic effect of 10 units/ml IFNα1 on A549 cells (EMC virus) [26]: 10 µg/mL
- EC50 of mAb neutralizing the anti-viral cytopathic effect of 10 units/ml IFNα2/1 on A549 cells (EMC virus) [26]: 20 µg/mL
- EC50 of mAb neutralizing the anti-viral cytopathic effect of 10 units/ml IFNα2 on A549 cells (EMC virus) [26]: 10 µg/mL
- EC50 of mAb neutralizing the anti-viral cytopathic effect of 10 units/ml IFNα5 on A549 cells (EMC virus) [26]: 6 µg/mL
- EC50 of mAb neutralizing the anti-viral cytopathic effect of 10 units/ml IFNα8 on A549 cells (EMC virus) [26]: 3 µg/mL
- EC50 of mAb neutralizing the anti-viral cytopathic effect of 10 units/ml IFNβ on A549 cells (EMC virus) [26]: > 30 µg/mL
- Mean Fluorescence Intensity [27]: 3.16
- Mean Fluorescence Intensity [28]: 9.49
Substance: anti-hIFNAR1 monoclonal antibody 4A7 (hybridoma ATCC HB 12132)

- Mean Fluorescence Intensity [29]: 2.99
Substance: control IgG (antibody)
